For 42 variants, abundance fitness results are on record in the Human Domainome abundance scans (Beltran et al. 2025).

± gives the uncertainty stated by the source.

B1: Calcium-binding protein 2, residues 155 to 219; numbered along this chain, Q9NPB3 (parent)
chain: RELRDAFREFDTNGDGRISVGELRAALKALLGERLSQREVDEILQDVDLNGDGLVDFEEFVRMMS

This data set covers variants of B1. The experiment in a line: abundance fitness (aPCA) (normalised: wild type 0, dead -1); higher = more abundant; growth selection in yeast, the domain comes from the species named. To be noted: Homo sapiens.
For RELRDAFREFDTNGDGLISVGELRAALKALLGERLSQREVDEILQDVDLNGDGLVDFEEFVRMMS [R17L], the abundance fitness is 0.045 ± 0.066.

On to RELRDAFREFDTNGDGRITVGELRAALKALLGERLSQREVDEILQDVDLNGDGLVDFEEFVRMMS [S19T], for which the abundance fitness amounted to 0.227 ± 0.068.

As for RELRDAFREFDTNGDGRINVGELRAALKALLGERLSQREVDEILQDVDLNGDGLVDFEEFVRMMS [S19N], the abundance fitness was 0.049 ± 0.081.

RELRDAFREFDTNGDGRISVGELRAALKALLGERLSQREVDEMLQDVDLNGDGLVDFEEFVRMMS [I43M]: the abundance fitness is -0.017 ± 0.074.

On to RELRDAFREFDTNGDGRISVGELRAALKALLGERLSQREVDEVLQDVDLNGDGLVDFEEFVRMMS [I43V], for which the abundance fitness is 0.01 ± 0.084.

For RELRDAFREFDTNGDGRISVGELRAALDALLGERLSQREVDEILQDVDLNGDGLVDFEEFVRMMS [K28D], the abundance fitness is 0.068 ± 0.26.

With RELRDAFREFDTNGDGRISVGELRAALKALLGERLSQREVDEILQDVDLNGDGLVDFEYFVRMMS [E59Y], the abundance fitness was -0.157 ± 0.22.

Take RELRDAFREFDTNGDGRISVGALRAALKALLGERLSQREVDEILQDVDLNGDGLVDFEEFVRMMS [E22A]: the abundance fitness is -0.342 ± 0.066.

In the case of RELRDAFREFDTNGDGRISVGELRAALKALLGERLSQREVDEILQDVDLNGDGLVDFEEFVDMMS [R62D], the abundance fitness worked out at 0.077 ± 0.21.

As for RELRDAFREFDTNGDGRISVGELRAALKALLGERLSQREVDEILQDVDLNGDGLVDFEEFVPMMS [R62P], the abundance fitness is -0.37 ± 0.074.

On to RELRDAFREFDTNGDGRISVGELRAALKALLGERLSQREVDEILQDVDLNGDGLRDFEEFVRMMS [V55R], for which the abundance fitness was -0.78 ± 0.046.

For RELRDAFREFDTNGDGRISVGELRAALKALLGERLSQREVDEILQDVDLNGDGLNDFEEFVRMMS [V55N], the abundance fitness is -0.714 ± 0.069.

Consider RELRDAFRYFDTNGDGRISVGELRAALKALLGERLSQREVDEILQDVDLNGDGLVDFEEFVRMMS [E9Y], for which the abundance fitness was -0.244 ± 0.22.

As for RELRDAFRQFDTNGDGRISVGELRAALKALLGERLSQREVDEILQDVDLNGDGLVDFEEFVRMMS [E9Q], the abundance fitness was -0.032 ± 0.068.

On to RELRDAFREFDTNGDGRISVGELRAANKALLGERLSQREVDEILQDVDLNGDGLVDFEEFVRMMS [L27N], for which the abundance fitness came to 0.088 ± 0.13.

As for RELRDAFREFDTNGDGRISVGELRAASKALLGERLSQREVDEILQDVDLNGDGLVDFEEFVRMMS [L27S], the abundance fitness was 0.161 ± 0.06.

Take RELRDAFREFDTNGDGRISVGELRAALKALLGERLSQREVDEIVQDVDLNGDGLVDFEEFVRMMS [L44V]: the abundance fitness was 0 ± 0.087.

In the case of RELRDAFREFDTNGDGRISVGELRAALKALLGERLSQREVDEITQDVDLNGDGLVDFEEFVRMMS [L44T], the abundance fitness was 0 ± 0.12.

In the case of RELRDAFREFDTNGDGRISVGELRAALKALLGERLSTREVDEILQDVDLNGDGLVDFEEFVRMMS [Q37T], the abundance fitness came out at 0.021 ± 0.082.

On to RELRDAFREFDTNGDGRISVGEYRAALKALLGERLSQREVDEILQDVDLNGDGLVDFEEFVRMMS [L23Y], for which the abundance fitness was -0.249 ± 0.15.

Turning to RELRPAFREFDTNGDGRISVGELRAALKALLGERLSQREVDEILQDVDLNGDGLVDFEEFVRMMS [D5P], the abundance fitness was -0.665 ± 0.064.

As for RELRWAFREFDTNGDGRISVGELRAALKALLGERLSQREVDEILQDVDLNGDGLVDFEEFVRMMS [D5W], the abundance fitness is -0.491 ± 0.071.

RELRVAFREFDTNGDGRISVGELRAALKALLGERLSQREVDEILQDVDLNGDGLVDFEEFVRMMS [D5V]: the abundance fitness was -0.19 ± 0.051.

For the variant RELRFAFREFDTNGDGRISVGELRAALKALLGERLSQREVDEILQDVDLNGDGLVDFEEFVRMMS [D5F], the abundance fitness is -0.066 ± 0.078.

For RELRDAFREFDSNGDGRISVGELRAALKALLGERLSQREVDEILQDVDLNGDGLVDFEEFVRMMS [T12S], the abundance fitness was -0.035 ± 0.072.

With RELRDAFREFDTNGDGRISVGELRAALKALLGERLSQREVDEILQDVILNGDGLVDFEEFVRMMS [D48I], the abundance fitness was determined as 0.105 ± 0.41.

As to RELRDAFREFDTNGDGRISVGELRAALKALIGERLSQREVDEILQDVDLNGDGLVDFEEFVRMMS [L31I], the abundance fitness was -0.061 ± 0.14.

Consider RELRDAFREFCTNGDGRISVGELRAALKALLGERLSQREVDEILQDVDLNGDGLVDFEEFVRMMS [D11C], for which the abundance fitness is -0.546 ± 0.11.

As to RELRDAFREFDTNGDGRISVGELRAALKALLGERLSQREVDEILQDVDLNKDGLVDFEEFVRMMS [G51K], the abundance fitness was 0.014 ± 0.17.

RELRDAFREFDTNGDGRISVGELRAALKALLGERLSQREVDEILQDVDLNGDGRVDFEEFVRMMS [L54R]: the abundance fitness was -0.283 ± 0.046.

Regarding RELRDAFREFDTNGDGRISVGELRAALKALLGERLSQREVDEILQDVDLNGDGTVDFEEFVRMMS [L54T], the abundance fitness is 0.012 ± 0.096.

On to RELRDAFREFDTNGDGRISVGELRAALKALLGERLEQREVDEILQDVDLNGDGLVDFEEFVRMMS [S36E], for which the abundance fitness stood at 0.024 ± 0.07.

RELRDAFREFDTNGDGRISVMELRAALKALLGERLSQREVDEILQDVDLNGDGLVDFEEFVRMMS [G21M]: the abundance fitness is -0.09 ± 0.093.

As to RELRDAFREFDTNGDGRISVGELRAALKALLGERLSQREVDEILQDVDLNGDGLVAFEEFVRMMS [D56A], the abundance fitness turned out to be 0.002 ± 0.082.

For RELRDAFREFDTNGDGRISVGELRAALKALLGESLSQREVDEILQDVDLNGDGLVDFEEFVRMMS [R34S], the abundance fitness is -0.019 ± 0.071.

On to RELRDAFREFDTNGDGRISVGELRAALKALLGENLSQREVDEILQDVDLNGDGLVDFEEFVRMMS [R34N], for which the abundance fitness was 0.043 ± 0.3.

For RELRDAFREFDTNGDGRISVGELRAALKALLGEELSQREVDEILQDVDLNGDGLVDFEEFVRMMS [R34E], the abundance fitness turned out to be 0.14 ± 0.076.

For RELRDAFREFDTNGDGRISVGELRAALKYLLGERLSQREVDEILQDVDLNGDGLVDFEEFVRMMS [A29Y], the abundance fitness is -0.214 ± 0.21.

In the case of RELRDAFREFDTNGDGRISVGELRAALKVLLGERLSQREVDEILQDVDLNGDGLVDFEEFVRMMS [A29V], the abundance fitness was -0.27 ± 0.083.

For RELADAFREFDTNGDGRISVGELRAALKALLGERLSQREVDEILQDVDLNGDGLVDFEEFVRMMS [R4A], the abundance fitness was -0.28 ± 0.099.

For RELEDAFREFDTNGDGRISVGELRAALKALLGERLSQREVDEILQDVDLNGDGLVDFEEFVRMMS [R4E], the abundance fitness was determined as 0.217 ± 0.27.

With RELRDAFREFDTNGDGRISVGELRAALKALLGERLSQREVDEILQDVDLNGIGLVDFEEFVRMMS [D52I], the abundance fitness was -0.126 ± 0.082.
